Experimental data from publication PMC6561319, “Proteomic Profiling, Transcription Factor Modeling, and Genomics of Evolved Tolerant Strains Elucidate Mechanisms of Vanillin Toxicity in Escherichia coli” (mSystems, 2019).

Legend:
[1] = substrate: COc1cc(C=O)ccc1O; assay: purified protein; assay type: biochemical, Escherichia coli; details: 0.1 mM NADPH, 100 mM phosphate pH 7.4, 37°C
[2] = substrate: O=C(O)CC(=O)C(=O)O; assay: purified protein; assay type: biochemical, Escherichia coli; details: 67 μM acetyl-CoA (fixed), 0.2 mM DTNB, 100 mM Tris-HCl pH 8, 37°C

Protein	Km [1] [µM]	kcat [1] [s⁻¹]	Km [2] [µM]	Vmax [2] [µmol/min/mg]	kcat [2] [s⁻¹]	kcat/Km [2] [M⁻¹ s⁻¹]
YqhD (Escherichia coli K-12) (protein) MNNFNLHTPTRILFGKGAIAGLREQIPHDARVLITYGGGSVKKTGVLDQVLDALKGMDVLEFGGIEPNPAYETLMNAVKLVREQKVTFLLAVGGGSVLDGTKFIAAAANYPENIDPWHILQTGGKEIKSAIPMGCVLTLPATGSESNAGAVISRKTTGDKQAFHSAHVQPVFAVLDPVYTYTLPPRQVANGVVDAFVHTVEQYVTKPVDAKIQDRFAEGILLTLIEDGPKALKEPENYDVRANVMWAATQALNGLIGAGVPQDWATHMLGHELTAMHGLDHAQTLAIVLPALWNEKRDTKRAKLLQYAERVWNITEGSDDERIDAAIAATRNFFEQLGVPTHLSDYGLDGSSIPALLKKLEEHGMTQLGENHDITLDVSRRIYEAAR	270 ± 40	0.103	–	–	–	–
DkgA (Escherichia coli K-12) (protein) ANPTVIKLQDGNVMPQLGLGVWQASNEEVITAIQKALEVGYRSIDTAAAYKNEEGVGKALKNASVNREELFITTKLWNDDHKRPREALLDSLKKLQLDYIDLYLMHWPVPAIDHYVEAWKGMIELQKEGLIKSIGVCNFQIHHLQRLIDETGVTPVINQIELHPLMQQRQLHAWNATHKIQTESWSPLAQGGKGVFDQKVIRDLADKYGKTPAQIVIRWHLDSGLVVIPKSVTPSRIAENFDVWDFRLDKDELGEIAKLDQGKRLGPDPDQFGG	200 ± 80	0.0467	–	–	–	–
GltA (citrate synthase) (Escherichia coli K-12) (protein, hexamer) MADTKAKLTLNGDTAVELDVLKGTLGQDVIDIRTLGSKGVFTFDPGFTSTASCESKITFIDGDEGILLHRGFPIDQLATDSNYLEVCYILLNGEKPTQEQYDEFKTTVTRHTMIHEQITRLFHAFRRDSHPMAVMCGITGALAAFYHDSLDVNNPRHREIAAFRLLSKMPTMAAMCYKYSIGQPFVYPRNDLSYAGNFLNMMFSTPCEPYEVNPILERAMDRILILHADHEQNASTSTVRTAGSSGANPFACIAAGIASLWGPAHGGANEAALKMLEEISSVKHIPEFVRRAKDKNDSFRLMGFGHRVYKNYDPRATVMRETCHEVLKELGTKDDLLEVAMELENIALNDPYFIEKKLYPNVDFYSGIILKAMGIPSSMFTVIFAMARTVGWIAHWSEMHSDGMKIARPRQLYTGYEKRDFKSDIKR	–	–	154 ± 25	4.8	3.87 ± 0.233	25100 ± 1470
